Experiments:
Hepatitis A virus (HAV) = assay: cell-based or functional assay
Rotavirus = assay: cell-based or functional assay
[1] = target: Human infectious Norovirus (genotype GII-4); assay: Norovirus captured on Con A-bound sepharose 4B resin, Ct values by RT-PCR
[2] = target: Human infectious Norovirus (genotype GII-4); assay: BLI, antibody and Con A each immobilized on ARG2 chips, same concentration of Norovirus

Substance: concanavalin A (Con A, sigma) (from UniProt P02866 30-281)
- concentration of HAV (copy number by RT-PCR) in FRhk-4 cells, Con A plus HAV group (Hepatitis A virus (HAV)): 27000 unit
- concentration of Rotavirus (copy number by RT-PCR) in MA-104 cells, Con A plus Rotavirus group (Rotavirus): 64000 unit
- collection rate [1]: 94.1%
- fold stronger binding than the antibody [2]: 3 fold
